Data set [1] concerns the molecule itself. Kind of data set: negative-stain transmission electron microscopy; oligomers isolated by SEC (Superose 6, 20 mM ammonium acetate pH 8.0), uranyl acetate stain, reference-free 2D classification, Feret's diameters.
Data set [2] concerns the molecule itself. Kind of data set: SEC; rh BRICHOS alone on Superose 6 10/300 GL, 0.5 ml/min, 20 mM PB, 0.2 mM EDTA pH 8.0 or 20 mM ammonium acetate pH 8.0; hydrodynamic diameter by comparison with standards.
Data set [3] deals with T1, citrate synthase (CS) from porcine heart (porcine, UniProt P00889 28-464).
T1 construct: citrate synthase, mitochondrial, from porcine heart; Used native (fresh) or partly heat-denatured (2 h at 45 °C); the assays tell the two states apart; source: bought: Sigma-Aldrich (from porcine heart)
T1 sequence (looked up): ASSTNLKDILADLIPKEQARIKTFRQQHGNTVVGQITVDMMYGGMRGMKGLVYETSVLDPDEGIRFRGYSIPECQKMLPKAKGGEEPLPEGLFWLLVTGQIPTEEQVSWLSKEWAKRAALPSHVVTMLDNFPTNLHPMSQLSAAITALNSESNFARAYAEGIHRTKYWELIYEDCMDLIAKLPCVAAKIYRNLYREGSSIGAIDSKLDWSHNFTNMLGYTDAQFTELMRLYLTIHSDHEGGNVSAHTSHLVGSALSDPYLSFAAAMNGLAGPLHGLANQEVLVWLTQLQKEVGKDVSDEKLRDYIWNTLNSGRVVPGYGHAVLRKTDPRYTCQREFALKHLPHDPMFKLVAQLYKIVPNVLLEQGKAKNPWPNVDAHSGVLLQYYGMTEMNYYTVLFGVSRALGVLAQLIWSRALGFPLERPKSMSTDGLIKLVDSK
Briefly: SEC; supernatant of CS:rh Bri3 BRICHOS 1:2 molar ratio after 2 h at 45 °C and centrifugation; Superose 6, 20 mM ammonium acetate pH 8.0, 0.7 ml/min; peak fractions by reducing SDS-PAGE. As to conditions: both partners purified.

B1: recombinant human (rh) Bri2 BRICHOS domain (domain or fragment, UniProt Q9Y287 90-236, looked up)
chain: GIKYIKDDVILNEPSADAPAALYQTIEENIKIFEEEEVEFISVPVPEFADSDPANIVHDFNKKLTAYLDLNLDKCYVIPLNTSIVMPPRNLLELLINIKAGTYLPQSYLIHEHMVITDRIENIDHLGFFIYRLCHDKETYKLQRRET
notes: Bri2 (ITM2B), human, residues 90-236 (linker part and BRICHOS domain); The modelled and aligned Bri2 BRICHOS is 113-231; the expressed construct is 90-236; Vector pET-32c(+); also called Bri2(90-236); source: E. coli Shuffle T7, purified (Ni-Sepharose from 2 M urea extract, thrombin cleavage, second Ni-Sepharose); not shown: Trx, N-terminal, cleaved; His6, N-terminal, cleaved; S tag, N-terminal, …
For the molecule B1, in data set [1], the binding result is “binds”.

B2: recombinant human (rh) Bri3 BRICHOS domain (domain or fragment, UniProt Q9NQX7 112-230, looked up)
chain: MELEEDVKIYLDENYERINVPVPQFGGGDPADIIHDFQRGLTAYHDISLDKCYVIELNTTIVLPPRNFWELLMNVKRGTYLPQTYIIQEEMVVTEHVSDKEALGSFIYHLCNGKDTYRL
notes: Bri3, human, residues 112-230 (BRICHOS domain); Bri3 is a 267-residue protein; Mainly high molecular weight oligomers, partly held by disulfide bonds; Calculated monomer mass 17.3 kDa with the S tag; Vector pET-32c(+); also called Bri3(112-230); rh (S-tag) Bri3 BRICHOS; source: E. coli Shuffle T7, purified (Ni-Sepharose from 2 M urea extract, thrombin cleavage, second Ni-Sepharose); not shown: …
In the case of B2, the binding result in data set [2] and in data set [3] was “binds” each time.
